From KR20190016466A

Legend:
[1] = target: human FcRn (hFcRn) (human) (UniProt P55899); assay: ELISA, antibody coated, hFcRn added, anti-6-His detection, pH 7.4; reference WT
[2] = target: human FcRn (hFcRn) (human) (UniProt P55899); assay: SPR (XPR36), hFcRn on chip, antibody flowed, pH 6.0
[3] = target: human FcRn (hFcRn) (human) (UniProt P55899); assay: ELISA, antibody coated, hFcRn added, anti-6-His detection, pH 6.0; reference WT
[4] = target: human FcRn (hFcRn) (human) (UniProt P55899); assay: SPR (XPR36), hFcRn on chip, antibody flowed, pH 7.4

Chain of UniProt P55899 (P55899 24-297 limits assumed, form in doubt): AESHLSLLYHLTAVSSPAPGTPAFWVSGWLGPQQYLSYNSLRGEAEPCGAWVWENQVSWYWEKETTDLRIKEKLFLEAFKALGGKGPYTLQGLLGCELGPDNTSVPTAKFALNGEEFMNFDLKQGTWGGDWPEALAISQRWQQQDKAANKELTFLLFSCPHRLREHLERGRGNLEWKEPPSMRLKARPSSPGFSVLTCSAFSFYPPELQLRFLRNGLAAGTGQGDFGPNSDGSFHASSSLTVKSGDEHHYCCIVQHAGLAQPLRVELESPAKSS

| Substance | fold increase of affinity over WT [1] | RU [2] | fold increase of affinity over WT [3] | RU [4] |
| --- | --- | --- | --- | --- |
| MST (M281Y/S283T/T285E) 변이 SO57 항체 (antibody) | 2 배 (fold) | 140 RU | 12 배 (fold) | 20 RU |
| HN (H462K/N463F) 변이 SO57 항체 (antibody) | 17 배 (fold) | 195 RU | 18 배 (fold) | 100 RU |
| MN (M457L/N463S) 변이 SO57 항체 (antibody) | 15 배 (fold) | 180 RU | 16 배 (fold) | 70 RU |
